For one series, the target named is Q9NSA1. As to the kind of experiment: SEC; SEC-HPLC (Bio-Sil SEC-250, 2x PBS with 2% isopropyl alcohol); 65 mg/ml in 10 mM potassium phosphate, 5% sorbitol, pH 8.0; stored at 25°C or 4°C for 2 to 9 days; high molecular weight species as % of total. On the technique in general: In gel filtration, larger molecules generally elute earlier.
The next series deals with T1, human βKlotho (human, UniProt Q86Z14 1-996).
T1 sequence (looked up): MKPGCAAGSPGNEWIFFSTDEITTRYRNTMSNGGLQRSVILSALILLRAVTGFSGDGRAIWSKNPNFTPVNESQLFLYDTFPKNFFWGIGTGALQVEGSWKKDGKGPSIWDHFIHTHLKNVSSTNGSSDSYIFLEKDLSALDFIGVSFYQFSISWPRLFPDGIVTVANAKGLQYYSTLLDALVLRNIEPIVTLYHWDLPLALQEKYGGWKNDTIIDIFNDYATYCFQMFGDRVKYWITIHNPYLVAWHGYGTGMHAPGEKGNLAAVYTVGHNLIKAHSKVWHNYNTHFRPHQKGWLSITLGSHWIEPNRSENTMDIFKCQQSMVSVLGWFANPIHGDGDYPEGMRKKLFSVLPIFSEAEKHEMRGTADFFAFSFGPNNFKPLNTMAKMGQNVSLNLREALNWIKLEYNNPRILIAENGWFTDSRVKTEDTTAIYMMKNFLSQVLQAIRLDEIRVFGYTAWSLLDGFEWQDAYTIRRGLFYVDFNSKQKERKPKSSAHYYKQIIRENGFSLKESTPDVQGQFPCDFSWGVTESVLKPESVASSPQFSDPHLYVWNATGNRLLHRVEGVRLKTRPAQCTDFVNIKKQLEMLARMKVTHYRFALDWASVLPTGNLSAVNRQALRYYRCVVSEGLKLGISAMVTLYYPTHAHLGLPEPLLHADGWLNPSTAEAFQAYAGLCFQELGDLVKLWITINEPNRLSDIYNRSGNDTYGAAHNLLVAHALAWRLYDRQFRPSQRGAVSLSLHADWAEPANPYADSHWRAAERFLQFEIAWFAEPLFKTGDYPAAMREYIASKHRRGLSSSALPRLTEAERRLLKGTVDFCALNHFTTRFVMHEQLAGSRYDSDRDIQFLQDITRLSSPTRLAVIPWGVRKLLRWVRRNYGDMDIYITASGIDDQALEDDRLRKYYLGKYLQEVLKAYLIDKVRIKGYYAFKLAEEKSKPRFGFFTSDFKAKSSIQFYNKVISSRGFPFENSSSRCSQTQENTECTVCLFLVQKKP
Description: cell-based or functional assay.

This note sets out measurements from article PMC3507880, “Rationale-Based Engineering of a Potent Long-Acting FGF21 Analog for the Treatment of Type 2 Diabetes” (PLoS ONE, 2012).

Substitutions are numbered along the chain they refer to.

B1: Fc-FGF21(RG) (protein)
chain: HPIPDSSPLLQFGGQVRQRYLYTDDAQQTEAHLEIREDGTVGGAADQSPESLLQLKALKPGVIQILGVKTSRFLCQRPDGALYGSLHFDPEACSFRERLLEDGYNVYQSEAHGLPLHLPGNKSPHRDPAPRGPARFLPLPGLPPALPEPPGILAPQPPDVGSSDPLSMVGGSQGRSPSYAS
Consider B1, for which the “aggregates, percent of total, over 9 days” value with Q9NSA1 is reported as “the amount of aggregates remained below 3% at all tested conditions”.

B2: wild type human mature FGF21 (protein)
chain: B1 chain with R98L, G171P
Take B2: the “high molecular aggregates, percent of total, day 5” value in the series with Q9NSA1 was “the high molecular aggregates accounted for 50% and 25% of total native FGF21 and Fc-FGF21, respectively”.

B3: Fc-FGF21 (N-terminal Fc fusion of human mature FGF21, wild type) (Fc fusion, UniProt Q9NSA1 29-209, looked up)
chain: B1 chain with R98L, G171P
B3: the “Elk1-dependent luciferase reporter in 293T cells stably overexpressing human βKlotho or CHO cells overexpressing human βKlotho and human FGFR1c; maximal activity relative to native FGF21” value with human βKlotho is around 80%. The “high molecular aggregates, percent of total, day 5” value with Q9NSA1 was “the high molecular aggregates accounted for 50% and 25% of total native FGF21 and Fc-FGF21, respectively”.
